Results published in patent US20220031842A1 (JIANGSU HENGRUI MEDICINE, published 2022).

T1: Full length of LAG-3 (human LAG-3 over-expressed on CHO-S cells) (human, UniProt P18627 23-525)
T1 construct: also called LAG-3 over-expressing CHO-S cells; full-length LAG-3
T1 sequence: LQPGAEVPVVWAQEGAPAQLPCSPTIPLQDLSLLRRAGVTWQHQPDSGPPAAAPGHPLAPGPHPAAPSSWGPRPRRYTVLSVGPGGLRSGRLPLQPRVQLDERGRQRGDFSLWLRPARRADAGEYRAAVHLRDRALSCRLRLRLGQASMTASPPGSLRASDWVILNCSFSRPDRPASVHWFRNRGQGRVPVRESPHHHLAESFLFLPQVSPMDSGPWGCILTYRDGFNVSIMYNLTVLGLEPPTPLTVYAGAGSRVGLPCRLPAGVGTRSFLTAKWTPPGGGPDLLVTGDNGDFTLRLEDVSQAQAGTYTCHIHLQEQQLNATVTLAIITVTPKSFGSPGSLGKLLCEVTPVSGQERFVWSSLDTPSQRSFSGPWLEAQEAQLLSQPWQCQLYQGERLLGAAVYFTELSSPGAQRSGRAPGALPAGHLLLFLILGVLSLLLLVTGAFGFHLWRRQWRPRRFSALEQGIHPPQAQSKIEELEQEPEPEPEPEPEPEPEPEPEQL

T2: LAG-3 extracellular domain with a Flag tag (human, UniProt P18627 23-434)
T2 construct: also called LAG-3-Flag; LAG-3-Flag antigen
T2 sequence: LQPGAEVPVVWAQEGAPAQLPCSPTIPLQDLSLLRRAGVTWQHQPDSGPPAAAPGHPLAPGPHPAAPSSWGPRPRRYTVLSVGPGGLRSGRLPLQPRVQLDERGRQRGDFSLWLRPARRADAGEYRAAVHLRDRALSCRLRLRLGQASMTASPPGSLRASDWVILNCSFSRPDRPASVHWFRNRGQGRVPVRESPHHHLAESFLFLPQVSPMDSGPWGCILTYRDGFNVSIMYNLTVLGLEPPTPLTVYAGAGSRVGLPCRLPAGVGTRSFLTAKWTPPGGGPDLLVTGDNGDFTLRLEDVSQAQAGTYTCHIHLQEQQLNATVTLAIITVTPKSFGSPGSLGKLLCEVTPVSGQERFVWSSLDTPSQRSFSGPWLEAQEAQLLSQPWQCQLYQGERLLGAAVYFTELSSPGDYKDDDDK

B1: mAb303 (antibody, V domains shown)
VH: EVQLQQSGPVLVKPGASVKMSCKASGYTLTDYYMNWVKQSHGKSLEWIGVINPYNGDTAYNQKFKGKATLTVDKSSNTAYMEINSLTSEDSAVYYCTRDDGYYDYYFDVWGTGTTVTVSS
VL: DIQMTQSPSSLSASLGERVILTCRASQDIGSRLNWLQQGPDGTFKRLIYATSTLDSGVPKRFSGSRSGSDFSLTISSLESEDFVDYYCLQLASSPPTFGGGTKLEIK
notes: Murine hybridoma antibody; also called LAG-3 antibody mAb303; hybridoma clone mAb303
B2: mAb229 (antibody, V domains shown)
VH: QIQLVQSGPELKKPGETVKISCKASGYTFTTSGMSWVKQAPGKGLKWMGWINTYSGVPTYADDFKGRFAFSLETSASTAYLQINNLKNEDTATYFCARDNYDARDVYYYAMDYWGQGTSVTVSS
VL: DIQMTQSPASLSVSVGETVTITCRASENIYSNLAWYQQKQGKSPQLLVYAATNLADGVPSRFSGSGSGTQYSLKINSLQSEDFGSYYCQHFWITPWTFGGGTKLEIK
notes: Murine hybridoma antibody; also called LAG-3 antibody mAb229; hybridoma clone mAb229

Columns and labels:
[1] = target: T1, Full length of LAG-3 (human LAG-3 …); experiment: cell ELISA on fixed CHO-S cells overexpressing full-length human LAG-3
Experimental: 100 μl/well of cells were seeded into 96-well plate at a density of 4×10⁵/ml and incubated overnight. The supernatant was discarded, and the plate was washed three times with PBS, and was fixed with 4% PFA (100 μl/well) for half an hour at room temperature, and then the plate was washed three times with PBS. After discarding the liquid, the plate was blocked with 200 μl/well of blocking solution containing 5% skim milk (Bright Dairy, skim milk powder) diluted in PBS, and incubated at 37° C. for 2.5 hours. After blocking, the blocking solution was discarded and the plate was washed 5 times with PBST buffer (PH7.4 PBS containing 0.05% tween-20), added with 50 μl/well of various concentrations of antibodies to be tested (Hybridoma purified antibody or humanized antibody) which have been diluted with sample diluent, and then incubated in incubator at 37° C. for 1 h. The plate was washed 5 times with PBST after incubation, added with 100 μl/well of goat anti-mouse (Jackson Immuno Research, Cat No. 115-035-003) or goat anti-human secondary antibody (Jackson Immuno Research, Cat No. 109-035-003) labeled with HRP, diluted in sample diluent, and the plate was incubated at 37° C. for 1 h. […]

[2] = target: T3, Fusion protein of LAG-3 extracellular region and hIgG1 Fc (human); experiment: ELISA, LAG-3-Fc captured by anti-human Fc on plate (which fusion: inferred)
T3 construct: Limits of the signal peptide are marked only by lost underlining; also called LAG-3-Fc; LAG-3-Fc fusion protein
Excerpt: The binding ability of anti-LAG-3 antibody to human LAG-3 protein was detected by ELISA assay. LAG-3 fusion protein with Fc or mFc tag was immobilized into 96-well microtiter plate by binding to anti-Fc or anti-mFc antibody coated on the microtiter plate, the strength of the signal after the addition of the antibody was used to determine the binding activity of the antibody to LAG-3, the specific experimental method is as follows.
The goat anti-human Fc antibody (Jackson Immuno Research, Cat No. 109-005-008) or goat anti-mouse Fc antibody (Sigma, Cat No. M3534-1ML) was diluted to a concentration of 2 μg/ml with PBS buffer at pH 7.4 (Sigma, Cat No. P4417-100TAB), and added to a 96-well plate at a volume of 50 μl/well and then, the plate was incubated in the incubator at 37° C. for 2 hours. After discarding the liquid, the plates were blocked with 200 μl/well of blocking solution containing 5% skim milk (Bright Dairy, skim milk powder) in PBS, and incubated in the incubator at 37° C. for 2.5 hours or overnight at 4° C. (16-18 hours). After blocking, the blocking solution was discarded and the plate was washed 5 times with PBST buffer (PH7.4 PBS containing 0.05% tween-20). […]

[3] = target: T2, LAG-3 extracellular domain with a Flag …; experiment: SPR (Biacore), antibody captured on anti-mouse capture chip, LAG-3-Flag in flow
Excerpt: 1. […] Then, the LAG-3-Flag antigen (produced in-house, SEQ ID NO:1) was flowed through the surface of the biochip, and the reaction signal was detected in real time by using a Biacore instrument to obtain the binding and dissociation curves, the value of affinity was obtained by fitting, see above table 2. After each cycle of dissociation was finished in the experiment, the biochip was washed and regenerated with a regeneration solution provided in the mouse anti-capture kit.

Binder | EC50 [1] | EC50 [2] | Kd [3]
B1 | 279 pM | 172 pM | 470 pM
B2 | 191 pM | 129 pM | 426 pM
